Source: article PMC11480844 (2024)

B1: H2-Kb / Ed46 (parent complex)
chain 1: AQSVTQPDARVTVSEGASLQLRCKYSYFGTPYLFWYVQYPRQGLQLLLKYYPGDPVVQGVNGFEAEFSKSNSSFHLRKASVHWSDWAVYFCAVGRTGGYKVVFGSGTRLLVSP
chain 2: DSGVVQSPRHIIKEKGGRSVLTCIPISGHSNVVWYQQTLGKELKFLIQHYEKVERDKGFLPSRFSVQQFDDYHSEMNMSALELEDSAMYFCASSPRHSDYTFGSGTRLLVI
chain 3: not shown
chain 4: IQKTPQIQVYSRHPPENGKPNILNCYVTQFHPPHIEIQMLKNGKKIPKVEMSDMSFSKDWSFYILAHTEFTPTETDTYACRVKHDSMAEPKTVYWDRDM
chain 5: SIINFEKL
B2: H2-Kb / B15 (parent complex)
chain 1: QQQVRQSPQSLTVWEGETAILNCSYENSAFDYFPWYQQFPGEGPALLISILSVSDKKEDGRFTIFFNKREKKLSLHIADSQPGDSATYFCAASAASNNRLTLGKGTQVVVLP
chain 2: DSGVVQSPRHIIKEKGGRSVLTCIPISGHSNVVWYQQTLGKELKFLIQHYEKVERDKGFLPSRFSVQQFDDYHSEMNMSALELEDSAMYFCASSRRADAEQFFGPGTRLTVL
chain 3: not shown
chain 4: B1 chain 4
chain 5: SIINFEKL

Variants of: B1
Test: % of reporter cells activated (NFAT-GFP), raw
Further: test concentration or dose not given here.

| Variant | ratio to parent |
| --- | --- |
| chain 5 S1F | 0.018 |
| chain 5 K7V | 0.353 |
| chain 5 E6V | 0.0112 |
| chain 5 S1M | 0.235 |
| chain 5 K7G | 0.341 |
| chain 5 K7P | 0.349 |
| chain 5 E6D | 1.02 |
| chain 5 F5V | 1.05 |
| chain 5 S1E | 0.174 |
| chain 5 I3N | 0.34 |
| chain 5 L8S | 0.783 |
| chain 5 L8T | 1.01 |
| chain 5 E6Q | 0.475 |
| chain 5 E6S | 0.249 |
| chain 5 I2V | 1.4 |
| chain 5 L8M | 1.08 |
| chain 5 I2S | 1.4 |
| chain 5 N4S | 0.00601 |
| chain 5 L8H | 0.912 |
| chain 5 K7R | 0.814 |
| chain 5 L8N | 0.697 |
| chain 5 F5H | 1.23 |
| chain 5 S1I | 0.0213 |
| chain 5 L8D | 0.618 |
| chain 5 S1K | 0.328 |
| chain 5 N4F | 0.0192 |
| chain 5 K7H | 0.74 |
| chain 5 E6G | 0.355 |

Variants of: B2
Test: % of reporter cells activated (NFAT-GFP), raw

| Variant | ratio to parent |
| --- | --- |
| chain 5 K7A | 0.359 |
| chain 5 L8R | 0.904 |
| chain 5 N4E | 0.26 |
| chain 5 I2F | 0.882 |
| chain 5 F5P | 0.829 |
| chain 5 S1R | 1.03 |
| chain 5 I3P | 0.982 |
| chain 5 S1D | 0.898 |
| chain 5 E6D | 0.956 |
| chain 5 N4S | 0.0135 |
| chain 5 N4H | 0.089 |
| chain 5 S1F | 0.144 |
| chain 5 N4V | 0.028 |
| chain 5 N4Q | 0.0132 |
| chain 5 N4F | 0.202 |
| chain 5 S1Q | 0.961 |
| chain 5 I3N | 0.0985 |
| chain 5 E6H | 0.241 |
| chain 5 F5S | 0.969 |
| chain 5 L8G | 0.75 |
| chain 5 I3A | 0.5 |
| chain 5 I2M | 0.89 |
| chain 5 E6L | 0.0519 |
| chain 5 I3Q | 0.743 |

| Variant | ratio to parent |
| --- | --- |
| chain 5 S1N | 0.416 |
| chain 5 I2W | 0.811 |
| chain 5 S1Y | 0.727 |
| chain 5 F5I | 0.818 |
| chain 5 K7C | 0.0553 |
| chain 5 L8Q | 0.784 |
| chain 5 K7N | 0.27 |
| chain 5 N4I | 0.194 |
| chain 5 F5G | 0.792 |
| chain 5 F5M | 0.836 |
| chain 5 N4K | 0.21 |
| chain 5 I3D | 0.503 |
| chain 5 S1M | 0.601 |
| chain 5 K7P | 0.377 |
| chain 5 F5K | 0.698 |
| chain 5 S1H | 0.517 |
| chain 5 F5L | 0.775 |
| chain 5 F5C | 0.834 |
| chain 5 I2T | 1.02 |
| chain 5 S1T | 0.487 |
| chain 5 E6N | 0.195 |
| chain 5 I3S | 0.601 |
| chain 5 I2E | 0.915 |
